Assay in all cases: pulldown
In data set [1] the target is T1, Hrb87F (Drosophila melanogaster) (UniProt P48810).
T1 sequence: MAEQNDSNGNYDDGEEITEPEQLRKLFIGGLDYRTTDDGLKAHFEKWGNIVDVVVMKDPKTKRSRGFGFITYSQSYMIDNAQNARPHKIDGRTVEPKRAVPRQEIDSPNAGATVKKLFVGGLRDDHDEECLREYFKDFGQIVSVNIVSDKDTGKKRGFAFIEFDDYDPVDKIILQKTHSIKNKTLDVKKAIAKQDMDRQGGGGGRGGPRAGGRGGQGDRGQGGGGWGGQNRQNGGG
The settings on record: 20 nM protein, 1.5 uM RNA pool; 20 mM HEPES pH 7.8, 70 mM KCl, 10 mM NaCl, 10% glycerol, 2 mM DTT, 0.1 ug/uL BSA; 30 min, 4 C (protocol of this paper; not …); cited from earlier work.

For the next data set, the target named is hnrnpa0a (Danio rerio) (UniProt Q6NYB0). The settings on record: 20 nM protein, 1.5 uM RNA pool; 20 mM HEPES pH 7.8, 70 mM KCl, 10 mM NaCl, 10% glycerol, 2 mM DTT, 0.1 ug/uL BSA; 30 min, 4 C.
Chain of hnrnpa0a (Danio rerio) (Q6NYB0 entry or part of it): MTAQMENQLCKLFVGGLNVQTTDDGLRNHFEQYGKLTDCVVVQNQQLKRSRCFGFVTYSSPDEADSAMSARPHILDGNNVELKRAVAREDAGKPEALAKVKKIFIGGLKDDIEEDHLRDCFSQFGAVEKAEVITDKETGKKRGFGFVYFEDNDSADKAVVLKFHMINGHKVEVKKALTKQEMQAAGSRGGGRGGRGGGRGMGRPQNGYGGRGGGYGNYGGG
Data set [2] addresses T2, hnrnpa0 (Xenopus tropicalis) (UniProt A0A8J0QIP1).
T2 sequence: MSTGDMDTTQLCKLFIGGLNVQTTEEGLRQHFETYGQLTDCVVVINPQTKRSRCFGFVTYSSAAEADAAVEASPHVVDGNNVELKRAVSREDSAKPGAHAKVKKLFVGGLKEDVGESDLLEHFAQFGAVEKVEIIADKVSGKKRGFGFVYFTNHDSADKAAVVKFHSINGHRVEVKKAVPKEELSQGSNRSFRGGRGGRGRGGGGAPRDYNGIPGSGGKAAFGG
The settings on record: 20 nM protein, 1.5 uM RNA pool; 20 mM HEPES pH 7.8, 70 mM KCl, 10 mM NaCl, 10% glycerol, 2 mM DTT, 0.1 ug/uL BSA; 30 min, 4 C.

For data set [3], the target named is T3, LmjF.18.0190 (Leishmania major) (UniProt Q4QE23).
T3 sequence: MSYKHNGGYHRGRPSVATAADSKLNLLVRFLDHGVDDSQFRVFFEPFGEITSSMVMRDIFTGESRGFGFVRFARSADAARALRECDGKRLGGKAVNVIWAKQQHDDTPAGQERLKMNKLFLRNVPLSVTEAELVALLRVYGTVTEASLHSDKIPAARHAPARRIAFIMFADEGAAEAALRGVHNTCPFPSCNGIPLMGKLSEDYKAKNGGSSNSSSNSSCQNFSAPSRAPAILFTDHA
The following applies: 20 nM protein, 1.5 uM RNA pool; 20 mM HEPES pH 7.8, 70 mM KCl, 10 mM NaCl, 10% glycerol, 2 mM DTT, 0.1 ug/uL BSA; 30 min, 4 C.

Data set [4] concerns the target T4, RNPC3 ins163_E (Gallus gallus) (UniProt A0A8V0ZU58).
T4 sequence: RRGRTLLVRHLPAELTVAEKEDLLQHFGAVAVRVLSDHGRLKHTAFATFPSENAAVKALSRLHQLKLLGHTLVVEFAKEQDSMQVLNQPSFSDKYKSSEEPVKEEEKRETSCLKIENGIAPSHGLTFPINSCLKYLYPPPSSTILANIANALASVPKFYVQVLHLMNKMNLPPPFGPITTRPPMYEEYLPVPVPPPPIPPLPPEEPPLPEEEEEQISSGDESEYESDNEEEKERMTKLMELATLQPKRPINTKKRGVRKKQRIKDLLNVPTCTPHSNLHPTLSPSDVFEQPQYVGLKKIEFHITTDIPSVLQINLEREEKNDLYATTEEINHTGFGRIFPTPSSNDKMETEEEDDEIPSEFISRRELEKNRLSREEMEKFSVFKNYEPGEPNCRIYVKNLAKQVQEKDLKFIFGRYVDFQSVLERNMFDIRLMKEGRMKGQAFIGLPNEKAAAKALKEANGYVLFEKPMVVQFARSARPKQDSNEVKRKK
The following applies: 20 nM protein, 1.5 uM RNA pool; 20 mM HEPES pH 7.8, 70 mM KCl, 10 mM NaCl, 10% glycerol, 2 mM DTT, 0.1 ug/uL BSA; 30 min, 4 C.

The target in another data set is T5, PRR3 (Homo sapiens) (UniProt P79522).
T5 sequence: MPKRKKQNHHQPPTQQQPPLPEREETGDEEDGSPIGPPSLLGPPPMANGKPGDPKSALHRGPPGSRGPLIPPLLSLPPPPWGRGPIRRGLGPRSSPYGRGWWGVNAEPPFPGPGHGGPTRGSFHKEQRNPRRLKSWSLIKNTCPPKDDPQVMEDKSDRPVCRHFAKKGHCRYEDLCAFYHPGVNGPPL
The following applies: 20 nM protein, 1.5 uM RNA pool; 20 mM HEPES pH 7.8, 70 mM KCl, 10 mM NaCl, 10% glycerol, 2 mM DTT, 0.1 ug/uL BSA; 30 min, 4 C.

Data set [5] addresses T6, NCU09742 (Neurospora crassa) (UniProt Q7SEI3).
T6 sequence: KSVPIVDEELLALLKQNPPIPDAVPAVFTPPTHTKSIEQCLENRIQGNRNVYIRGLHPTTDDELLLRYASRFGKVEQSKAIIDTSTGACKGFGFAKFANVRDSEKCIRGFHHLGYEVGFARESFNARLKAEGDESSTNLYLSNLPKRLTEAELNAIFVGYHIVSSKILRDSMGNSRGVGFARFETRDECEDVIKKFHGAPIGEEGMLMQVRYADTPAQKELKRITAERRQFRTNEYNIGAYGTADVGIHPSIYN
The following applies: 20 nM protein, 1.5 uM RNA pool; 20 mM HEPES pH 7.8, 70 mM KCl, 10 mM NaCl, 10% glycerol, 2 mM DTT, 0.1 ug/uL BSA; 30 min, 4 C.

Data set [6] addresses T7, rbm14 (Xenopus tropicalis) (UniProt A0A8J0QJ94).
T7 sequence: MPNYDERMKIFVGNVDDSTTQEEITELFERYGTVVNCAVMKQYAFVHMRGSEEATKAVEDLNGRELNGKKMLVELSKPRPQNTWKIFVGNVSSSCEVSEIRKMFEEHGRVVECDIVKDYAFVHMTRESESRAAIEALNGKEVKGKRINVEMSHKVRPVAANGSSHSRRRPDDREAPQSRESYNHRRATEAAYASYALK
The following applies: 20 nM protein, 1.5 uM RNA pool; 20 mM HEPES pH 7.8, 70 mM KCl, 10 mM NaCl, 10% glycerol, 2 mM DTT, 0.1 ug/uL BSA; 30 min, 4 C.

Turning to GGUAGGG [RNAcompete motif RNCMPT00029], in data set [1], the binding signal (z-score (mean of top ten 7-mers)) was 13.4.

In turn, UAGGA [RNAcompete motif RNCMPT00677] showed a binding signal (z-score (mean of top ten 7-mers)) with hnrnpa0a (Danio rerio) of 9.94.

Turning to AUUAGGA [RNAcompete motif RNCMPT00684], the binding signal (z-score (mean of top ten 7-mers)) in data set [2] was 8.79.

In data set [3], CUCAUUU [RNAcompete motif RNCMPT00687] yielded a binding signal (z-score (mean of top ten 7-mers)) of 20.6.

In turn, UUACGUA [RNAcompete motif RNCMPT00630] registered a binding signal (z-score (mean of top ten 7-mers)) in data set [4] of 6.68.

Sequence AUAAGC [RNAcompete motif RNCMPT00628] registered a binding signal (z-score (mean of top ten 7-mers)) with PRR3 (Homo sapiens) of 15.2.

Sequence AUUAUUA [RNAcompete motif RNCMPT00676] showed a binding signal (z-score (mean of top ten 7-mers)) in data set [5] of 9.27.

As to CGACGA [RNAcompete motif RNCMPT00514], the binding signal (z-score (mean of top ten 7-mers)) in data set [6] was 10.1.
